This series can be described thus: self-splicing fitness, log relative to wild type (ln ratio); higher = more splicing; Tetrahymena group I intron in knt gene, E. coli kanamycin selection, DiMSum; sequences stand for … in CUCUCU…GGAGGGAAAAGUUAUCAGGCAUGCACCUGGUAGCUAGUCUUUAAACCAAUAGAUUGCAUCGGUUUAAAAGGCAAGACCGUCAAAUUGCGGGAAAGGGGUCAACAGCCGUUCAGUACCAAGUCUCAGGGGAAACUUUGAGAUGGCCUUGCAAAGGGUAUGGUAAUAAGCUGACGGACAUGGUCCUAACCACGCAGCCAAGUCCUAAGUCAACAGAUCUUCUGUUGAUAUGGAUGCAGUUCACAGACUAAAUGUCGGUCGGGGAAGAUGUAUUCUUCUCAUAAGAUAUAGUCGGACCUCUCCUUAAUGGGAGCUAGCGGAUGAAGUGAUGCAACACUGGAGCCGCUGGGAACUAAUUUGUAUGCGAAAGUAUAUUGAUUAGUUUUGGAGUACUCGUGGUCG
An outline of the steps: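 Six replicate transformations of E. coli BL21(DE3) with a pET-22b(+) library were grown overnight at 37°C or 30°C. The library randomised all eight P1ex-region intron nucleotides, the intron lying in the knt kanamycin-resistance gene, and plates were LB agar with or without 25 μg/mL kanamycin plus 100 μg/mL carbenicillin, 50 μM IPTG and 0.2% rhamnose. Pooled colonies were amplicon-sequenced on an Illumina HiSeq 2500, and fitness is the DiMSum error-weighted combination of wild-type-normalised replicate fold changes, kanamycin versus none.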

± gives the uncertainty stated by the source.

In the case of CCUUAGCAAUAUUACGCUAC, the “self-splicing fitness (ln)” value was -2.32 ± 0.27 (30 °C) and -2.26 ± 0.27 (37 °C). The matching figures for CCUUAGCAAUAUUACGCUUC: -3.71 ± 0.31 and -1.83 ± 0.24. CCUUAGCAAUAUUACGGAAA: where the note is “30 °C”, the “self-splicing fitness (ln)” value is -3.07 ± 0.24. Consider CCUUAGCAAUAUUACGGAUC, for which the “self-splicing fitness (ln)” value is -3.45 ± 0.47 (30 °C) and -3.6 ± 0.34 (37 °C).

Consider CCUUAGCAAUAUUACGGCGA, for which the “self-splicing fitness (ln)” value was -4.24 ± 0.39 (30 °C) and -1.96 ± 0.2 (37 °C). With CCUUAGCAAUAUUACGGGAC, the “self-splicing fitness (ln)” value (30 °C) is -3.96 ± 0.46. With CCUUAGCAAUAUUACGUACA, the “self-splicing fitness (ln)” value (30 °C) was -3.88 ± 0.42 and the “self-splicing fitness (ln)” value (37 °C) was -2.22 ± 0.3. Taken in the same sequence, the figures for CCUUAGCAAUAUUACGUACU were -2.32 ± 0.23 and -1.99 ± 0.21. Taken in the same sequence, the figures for CCUUAGCAAUAUUACGUAUU were -4.45 ± 0.29 and -2.82 ± 0.22. The matching figures for CCUUAGCAAUAUUACGUCGU: -3.7 ± 0.25 and -2.13 ± 0.22. With CCUUAGCAAUAUUACGUGGU, the “self-splicing fitness (ln)” value is, setting by setting: (30 °C) -4.41 ± 0.36; (37 °C) -1.91 ± 0.23. Taken in the same sequence, the figures for CGAAAGCAAUAUUACGAAAG were -0.96 ± 0.073 and -0.475 ± 0.11.

As for CGAAAGCAAUAUUACGAAGU, the “self-splicing fitness (ln)” value reads like this: (30 °C) -3.07 ± 0.15; (37 °C) -1.84 ± 0.19. With CGAAAGCAAUAUUACGAGAA, the “self-splicing fitness (ln)” value (30 °C) was -2.51 ± 0.49. In the case of CGAAAGCAAUAUUACGCAAA, the “self-splicing fitness (ln)” value by setting is: (30 °C) -2.59 ± 0.26; (37 °C) -2.35 ± 0.32. The matching figures for CGAAAGCAAUAUUACGCACA: -0.831 ± 0.11 and -0.358 ± 0.16.

On to CGAAAGCAAUAUUACGCCGC, for which the “self-splicing fitness (ln)” value (37 °C) is -2.13 ± 0.36. Still for that read-out and setting: the value for CGAAAGCAAUAUUACGCGUC was -0.242 ± 0.19.

Take CGAAAGCAAUAUUACGCGUU: the “self-splicing fitness (ln)” value reads like this: (30 °C) -4 ± 0.18; (37 °C) -2.85 ± 0.2.

Turning to CGAAAGCAAUAUUACGCUCG, the “self-splicing fitness (ln)” value is -3.71 ± 0.3 (30 °C) and -2.26 ± 0.22 (37 °C). The matching figures for CGAAAGCAAUAUUACGCUCU: -2.56 ± 0.14 and -1.56 ± 0.15.

Take CGAAAGCAAUAUUACGCUUC: the “self-splicing fitness (ln)” value reads like this: (30 °C) -2.95 ± 0.38; (37 °C) -2.01 ± 0.39.

On to CGAAAGCAAUAUUACGGACU, for which the “self-splicing fitness (ln)” value runs as follows: (30 °C) -0.69 ± 0.053; (37 °C) 0.357 ± 0.079.

In the case of CGAAAGCAAUAUUACGGAGG, the “self-splicing fitness (ln)” value was -0.982 ± 0.097 (30 °C) and -1.45 ± 0.14 (37 °C). Turning to CGAAAGCAAUAUUACGGCAG, the “self-splicing fitness (ln)” value (30 °C) is -0.162 ± 0.081 and the “self-splicing fitness (ln)” value (37 °C) is 0.194 ± 0.1. The matching figures for CGAAAGCAAUAUUACGGCGG: -0.187 ± 0.067 and 0.456 ± 0.093. Consider CGAAAGCAAUAUUACGGGUC, for which the “self-splicing fitness (ln)” value runs as follows: (30 °C) -4 ± 0.3; (37 °C) -3.76 ± 0.34.

For CGAAAGCAAUAUUACGUACA, the “self-splicing fitness (ln)” value by setting is: (30 °C) -1.25 ± 0.14; (37 °C) -1.23 ± 0.15. CGAAAGCAAUAUUACGUACG: the “self-splicing fitness (ln)” value is, setting by setting: (30 °C) -1.5 ± 0.076; (37 °C) -1.27 ± 0.11. CGAAAGCAAUAUUACGUAGG: the “self-splicing fitness (ln)” value is, setting by setting: (30 °C) -0.721 ± 0.067; (37 °C) -0.28 ± 0.096. Taken in the same sequence, the figures for CGAAAGCAAUAUUACGUAUA were -3.52 ± 0.17 and -2.99 ± 0.21.

For the sequence CGAAAGCAAUAUUACGUUAG, the “self-splicing fitness (ln)” value (30 °C) was -0.97 ± 0.068 and the “self-splicing fitness (ln)” value (37 °C) was -0.895 ± 0.082. CGAAAGCAAUAUUACGUUCC: the “self-splicing fitness (ln)” value by setting is: (30 °C) -2.1 ± 0.21; (37 °C) -0.586 ± 0.22. Taken in the same sequence, the figures for CGAAAGCAAUAUUACGUUCG were -3.44 ± 0.14 and -2.62 ± 0.15. The matching figures for CGAAAGCAAUAUUACGUUCU: -0.581 ± 0.075 and 0.092 ± 0.1. The matching figures for CGACAGCAAUAUUACGACAA: -2.08 ± 0.13 and -1.27 ± 0.13. CGACAGCAAUAUUACGACGG: the “self-splicing fitness (ln)” value runs as follows: (30 °C) 0.243 ± 0.074; (37 °C) 0.0681 ± 0.086. The matching figures for CGACAGCAAUAUUACGAGUG: -1.06 ± 0.046 and -0.592 ± 0.063. As for CGACAGCAAUAUUACGAUUG, the “self-splicing fitness (ln)” value reads like this: (30 °C) -0.746 ± 0.07; (37 °C) -0.877 ± 0.091. Taken in the same sequence, the figures for CGACAGCAAUAUUACGCACA were -0.429 ± 0.17 and 0.097 ± 0.17. As for CGACAGCAAUAUUACGCAGC, the “self-splicing fitness (ln)” value (37 °C) was -1.96 ± 0.29. CGACAGCAAUAUUACGCAGG: the “self-splicing fitness (ln)” value (30 °C) was -2.05 ± 0.081 and the “self-splicing fitness (ln)” value (37 °C) is -0.906 ± 0.088. Taken in the same sequence, the figures for CGACAGCAAUAUUACGCAUG were -1.37 ± 0.075 and -0.351 ± 0.074. Regarding CGACAGCAAUAUUACGCCAC, the “self-splicing fitness (ln)” value (37 °C) is 0.365 ± 0.49.

As to CGACAGCAAUAUUACGCGAA, the “self-splicing fitness (ln)” value is, setting by setting: (30 °C) -2.75 ± 0.17; (37 °C) -1.42 ± 0.14. Taken in the same sequence, the figures for CGACAGCAAUAUUACGCGUC were -1.94 ± 0.14 and -2.76 ± 0.27. The matching figures for CGACAGCAAUAUUACGCGUG: -1.55 ± 0.067 and -1.14 ± 0.095.

Turning to CGACAGCAAUAUUACGCUCA, the “self-splicing fitness (ln)” value (30 °C) is 0.00701 ± 0.094 and the “self-splicing fitness (ln)” value (37 °C) is -0.503 ± 0.1. Taken in the same sequence, the figures for CGACAGCAAUAUUACGGAGU were -3.91 ± 0.2 and -2.53 ± 0.14. The matching figures for CGACAGCAAUAUUACGGCUC: -2.5 ± 0.11 and -1.89 ± 0.14.

As for CGACAGCAAUAUUACGGGCA, the “self-splicing fitness (ln)” value is -1.24 ± 0.14 (30 °C) and 0.117 ± 0.13 (37 °C). Taken in the same sequence, the figures for CGACAGCAAUAUUACGGGGC were -3.72 ± 0.29 and -2.87 ± 0.29. The matching figures for CGACAGCAAUAUUACGGGGG: -2.92 ± 0.094 and -2.51 ± 0.11. For the sequence CGACAGCAAUAUUACGGUAU, the “self-splicing fitness (ln)” value runs as follows: (30 °C) -3.62 ± 0.2; (37 °C) -2.45 ± 0.23.

As for CGACAGCAAUAUUACGGUGA, the “self-splicing fitness (ln)” value was -2.34 ± 0.14 (30 °C) and -1.55 ± 0.14 (37 °C).

On to CGACAGCAAUAUUACGGUUG, for which the “self-splicing fitness (ln)” value (30 °C) is -3.3 ± 0.13 and the “self-splicing fitness (ln)” value (37 °C) is -2.84 ± 0.18. The matching figures for CGACAGCAAUAUUACGUACC: -0.817 ± 0.12 and -0.217 ± 0.19.

On to CGACAGCAAUAUUACGUAUC, for which the “self-splicing fitness (ln)” value (37 °C) was -1.59 ± 0.19. Take CGACAGCAAUAUUACGUCCA: the “self-splicing fitness (ln)” value reads like this: (30 °C) -0.437 ± 0.066; (37 °C) -0.321 ± 0.081. Taken in the same sequence, the figures for CGACAGCAAUAUUACGUGAA were -1.93 ± 0.11 and -2.02 ± 0.15. Taken in the same sequence, the figures for CGACAGCAAUAUUACGUGAU were -3.44 ± 0.21 and -1.92 ± 0.17. Turning to CGAGAGCAAUAUUACGAAGA, under “30 °C”, the “self-splicing fitness (ln)” value is -3.49 ± 0.36. For the sequence CGAGAGCAAUAUUACGACCU, the “self-splicing fitness (ln)” value reads like this: (30 °C) -0.7 ± 0.21; (37 °C) -0.635 ± 0.41. Take CGAGAGCAAUAUUACGCAAA: the “self-splicing fitness (ln)” value (30 °C) is -2.67 ± 0.27.

Take CGAGAGCAAUAUUACGCAAU: the “self-splicing fitness (ln)” value (30 °C) was -2.58 ± 0.36. Take CGAGAGCAAUAUUACGCAGA: the “self-splicing fitness (ln)” value by setting is: (30 °C) -3.36 ± 0.33; (37 °C) -1.94 ± 0.26.

Turning to CGAGAGCAAUAUUACGCCUC, the “self-splicing fitness (ln)” value is, setting by setting: (30 °C) -4.16 ± 0.39; (37 °C) -1.27 ± 0.18. The matching figures for CGAGAGCAAUAUUACGCGAG: -2.82 ± 0.19 and -1.88 ± 0.22. Consider CGAGAGCAAUAUUACGCGGG, for which the “self-splicing fitness (ln)” value is, setting by setting: (30 °C) -3.05 ± 0.32; (37 °C) -2.16 ± 0.27. As to CGAGAGCAAUAUUACGCUCG, where the note is “37 °C”, the “self-splicing fitness (ln)” value is -2.39 ± 0.38. CGAGAGCAAUAUUACGGAGA: the “self-splicing fitness (ln)” value (30 °C) was -2.61 ± 0.26. Still for that read-out and setting: the value for CGAGAGCAAUAUUACGGAGC was -2.84 ± 0.35. Consider CGAGAGCAAUAUUACGGAUA, for which the “self-splicing fitness (ln)” value was -2.25 ± 0.37 (30 °C) and -1.82 ± 0.41 (37 °C). As to CGAGAGCAAUAUUACGGCAA, the “self-splicing fitness (ln)” value (37 °C) was -2.79 ± 0.48.

On to CGAGAGCAAUAUUACGGCCG, for which the “self-splicing fitness (ln)” value is, setting by setting: (30 °C) -3.76 ± 0.43; (37 °C) -1.02 ± 0.3. Taken in the same sequence, the figures for CGAGAGCAAUAUUACGGCUG were -1.18 ± 0.13 and -1.14 ± 0.17.

Regarding CGAGAGCAAUAUUACGGGAG, the “self-splicing fitness (ln)” value (30 °C) is -2.83 ± 0.16 and the “self-splicing fitness (ln)” value (37 °C) is -0.597 ± 0.16.

As for CGAGAGCAAUAUUACGGGGG, the “self-splicing fitness (ln)” value runs as follows: (30 °C) -3.83 ± 0.43; (37 °C) -3.14 ± 0.47.

Turning to CGAGAGCAAUAUUACGGGGU, the “self-splicing fitness (ln)” value by setting is: (30 °C) -2.86 ± 0.37; (37 °C) -2.27 ± 0.37. For CGAGAGCAAUAUUACGUAAG, the “self-splicing fitness (ln)” value was -2.59 ± 0.13 (30 °C) and -1.26 ± 0.15 (37 °C).

The values are drawn from the supplement of paper PMC7877785.
